Two molecules from patent US20050208048A1 can be followed below.

This experiment deals with human HLA-DR on cells (DRβ1 allele not stated) (human). Kind of experiment: cell-based or functional assay.

B1: murine/human chimeric DN1924 HLA-DR-specific monoclonal antibody (antibody, human IgG2, kappa)
heavy: EVKLLESGGGLVQPGGSLKLSCAASGFDFSRYWMSWVRQAPGKGLEWIGEINPDSSTINYTPSLKDKFIISRDNAKNTLYLQMSKVRSEDTALYYCARQPYYYGSSYWYFDVWGAGTTVTVSSAASTKGPSVFPLAPCSRSTSESTAALGCLVKDYFPEPVTVSWNSGALTSGVHTFPAVLQSSGLYSLSSVVTVTSSNFGTQTYTCNVDHKPSNTKVDKTVERKCCVECPPCPAPPAAAPSVFLFPPKPKDTLMISRTPEVTCVVVDVSHEDPEVQFNWYVDGMEVHNAKTKPREEQFNSTFRVVSVLTVVHQDWLNGKEYKCKVSNKGLPAPIEKTISKTKGQPREPQVYTLPPSREEMTKNQVSLTCLVKGFYPSDIAVEWESNGQPENNYKTTPPMLDSDGSFFLYSKLTVDKSRWQQGNVFSCSVMHEALHNHYTQKSLSLSPGK
light: ETTVTQSPASLSMAIGEKVTIRCITSTDIDDDMNWYQQKPGEPPKLLISEGNTLRPGVPSRFSSSGYGTDFVFTIENMLSEDVADYYLQSDNLPYTFGGGTKLEIKTVAAPSVFIFPPSDEQLKSGTASVVCLLNNFYPREAKVQWKVDNALQSGNSQESVTEQDSKDSTYSLSSTLTLSKADYEKHKVYACEVTHQGLSSPVTKSFNRGEC
In turn, B1 registered a % Annexin V Propidium Iodide Positive, antibody at 5 µg/ml, with Z-VAD-fmk of 52.7% and a % Annexin V Propidium Iodide Positive, antibody at 5 µg/ml, without Z-VAD-fmk of 57.4%.

B2: HLA-DR-specific monoclonal antibody L243 (antibody, from another filing, V domains shown)
VH: QIQLVQSGPELKKPGETVKISCKASGFTFTNYGMNWVKQAPGKGLKWMGWINTYTREPTYADDFKGRFAFSLETSASTAYLQINNLKNEDTAKYFCARDITAVVPTGFDYWGQGTTLTVSS
VL: DIQMTQSPASLSVSVGETVTITCRASENIYSNLAWYRQKQGKSPQLLVFAASNLADGVPSRFSGSGSGTQYSLKINSLQSEDFGDYYCQHFWTTPWAFGGGTNLEIKR
The molecule B2 had a suppression of SEB-triggered T cell proliferation ([3H]thymidine) of 70%.
